# Measured values reported in patent US20070207955A1, “Novel polypeptide and process for producing the same, and collagenase inhibitor” (priority 2006, published 2007).
# How the values were obtained:
# [1] = target: collagenase (MMP-1, human rheumatoid synovial fibroblast) (human) (UniProt P03956)
# [2] = target: T1, collagenase (MMP-1, human rheumatoid synovial fibroblast) (Homo sapiens, UniProt P03956); assay: Test Example 2: collagenase inhibition, peak area of Dnp-Pro-Leu-Gly from decomposition of Dnp-Pro-Leu-Gly-Ile-Ala-Gly-Arg-NH2; type: biochemical; conditions: 0.025 mg polypeptide, 200 ng collagenase, 37° C. for one hour
# T1 construct: collagenase (MMP-1, human rheumatoid synovial fibroblast); endogenous in cells; host or cells: human rheumatoid synovial fibroblast
# T1 sequence (P03956 100-469): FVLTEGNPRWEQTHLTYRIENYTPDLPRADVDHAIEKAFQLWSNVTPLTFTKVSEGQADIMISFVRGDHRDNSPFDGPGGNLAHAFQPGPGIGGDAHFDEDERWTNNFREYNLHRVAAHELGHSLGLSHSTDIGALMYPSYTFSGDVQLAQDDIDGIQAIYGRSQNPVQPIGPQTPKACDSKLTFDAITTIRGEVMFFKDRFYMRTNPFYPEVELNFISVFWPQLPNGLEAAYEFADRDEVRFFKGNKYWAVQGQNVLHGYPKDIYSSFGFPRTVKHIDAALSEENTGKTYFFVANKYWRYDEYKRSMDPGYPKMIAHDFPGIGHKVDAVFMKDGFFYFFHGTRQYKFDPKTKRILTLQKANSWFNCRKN
# Procedure: Each of the polypeptides (0.025 mg) obtained in the Examples 1 to 6 and Comparative Examples 1 and 2 was dissolved in 0.05 mL of a 50 mM Tris/HCl buffer (pH=7.5) containing 50 mM NaCl and 10 mM CaCl2. Further, to each of the solutions was added 200 ng of collagenase (MMP-1, human rheumatoid synovial fibroblast) which was dissolved in 0.05 mL of a 50 mM Tris/HCl buffer (pH=7.5) containing 50 mM NaCl and 10 mM CaCl2, and was added 0.01 mL of 1 mM DMSO solution of Dnp-Pro-Leu-Gly-Ile-Ala-Gly-Arg-NH2 (manufactured by Peptide Institute, Inc., Dnp represents 2,4-dinitrophenyl group). The resulting mixture was allowed to stand at 37° C. for one hour. Then, 0.2 mL of acetonitrile was added to the mixture, and the resultant was centrifuged at 10,000 rpm for 10 minutes.
# Incidentally, as a control, a peak area of the peptide Dnp-Pro-Leu-Gly without addition of any polypeptide was measured. The peak area of the control was considered as 100, and the peak area detected by addition of each of the polypeptides obtained in Examples and Comparative Examples was calculated as a relative value to the control.
# [3] = target: polypeptide of Comparative Example 1 (polycondensate of H-(Pro-Hyp-Gly)10-OH) (Artificial Sequence)
# [4] = target: polypeptide of Example 2 (polycondensate of H-(Pro-Hyp-Gly)4-Pro-Gln-Gly-Ile-Ala-Gly-(Pro-Hyp-Gly)4-OH) (Artificial Sequence)
# [5] = target: polypeptide of Example 3 (co-polycondensate of H-(Pro-Hyp-Gly)10-OH and H-(Pro-Hyp-Gly)4-Pro-Gln-Gly-Ile-Ala-Gly-(Pro-Hyp-Gly)4-OH, equimolar) (Artificial Sequence)
Substance,relative value of the peak area of Dnp-Pro-Leu-Gly (control without polypeptide = 100) (relative to control = 100) [1],further results
"polypeptide of Example 1, H-(Pro-Hyp-Gly)4-Pro-Gln-Gly-Ile-Ala-Gly-(Pro-Hyp-Gly)4-OH",5,
"polypeptide of Example 5, H-(Pro-Hyp-Gly)4-Pro-Leu-Gly-Ile-Ala-Gly-(Pro-Hyp-Gly)4-OH",4,
H-(Pro-Hyp-Gly)10-OH [Comparative Example 2],,inhibition of the collagenase activity [2]: the inhibition of the collagenase activity was not recognized; relative value of the detected peak area of Dnp-Pro-Leu-Gly (control without polypeptide = 100) ([2]; pH 7.5): 96
polypeptide of Comparative Example 1 (polycondensate of H-(Pro-Hyp-Gly)10-OH),97,
"collagenase (MMP-1, human rheumatoid synovial fibroblast) (from UniProt P03956) (enzyme)",,change in the molecular weight peak by gel-permeation chromatography after 24 hours at 37 C with collagenase (molecular weight) [3]: 540000; change in the molecular weight peak by gel-permeation chromatography after 24 hours at 37 C with collagenase (molecular weight) [4]: 540000; change in the molecular weight peak by gel-permeation chromatography after 24 hours at 37 C with collagenase (molecular weight) [5]: 400000
polypeptide of Example 6 (polycondensate of H-(Pro-Hyp-Gly)4-Pro-Leu-Gly-Ile-Ala-Gly-(Pro-Hyp-Gly)4-OH),2,
"polypeptide of Example 3 (co-polycondensate of H-(Pro-Hyp-Gly)10-OH and H-(Pro-Hyp-Gly)4-Pro-Gln-Gly-Ile-Ala-Gly-(Pro-Hyp-Gly)4-OH, equimolar)",12,

# Further lines, with some results ahead:
relative value of the peak area of Dnp-Pro-Leu-Gly (control without polypeptide = 100) (relative to control = 100) [1],Substance,further results
22,"polypeptide of Example 4 (co-polycondensate of H-(Pro-Hyp-Gly)10-OH and H-(Pro-Hyp-Gly)4-Pro-Gln-Gly-Ile-Ala-Gly-(Pro-Hyp-Gly)4-OH, 0.00081 mmol to 0.00009 mmol)",
3,polypeptide of Example 2 (polycondensate of H-(Pro-Hyp-Gly)4-Pro-Gln-Gly-Ile-Ala-Gly-(Pro-Hyp-Gly)4-OH),
96,"peptide of Comparative Example 2, H-(Pro-Hyp-Gly)10-OH",
